Several values for one entry are separate records, joined by “and”; a condition that tells them apart may be missing. Equal entries are not always repeated.
Legend:
[1] = molecular target: T1, mEGFP-RelA (fluorescent fusion protein expressed from the pSF-EF1α-Ub-Neo plasmid), Q04207; experiment: Number and Brightness (N&B) live-cell confocal fluorescence fluctuation microscopy; nuclei of live primary mouse adult fibroblasts (WT or p50/c-Rel double-KO) transiently expressing mEGFP-RelA, 100 ng/mL LPS; brightness ε relative to the monomer control; untagged endogenous RelA present; conditions: remark: other sources report otherwise
T1 chain: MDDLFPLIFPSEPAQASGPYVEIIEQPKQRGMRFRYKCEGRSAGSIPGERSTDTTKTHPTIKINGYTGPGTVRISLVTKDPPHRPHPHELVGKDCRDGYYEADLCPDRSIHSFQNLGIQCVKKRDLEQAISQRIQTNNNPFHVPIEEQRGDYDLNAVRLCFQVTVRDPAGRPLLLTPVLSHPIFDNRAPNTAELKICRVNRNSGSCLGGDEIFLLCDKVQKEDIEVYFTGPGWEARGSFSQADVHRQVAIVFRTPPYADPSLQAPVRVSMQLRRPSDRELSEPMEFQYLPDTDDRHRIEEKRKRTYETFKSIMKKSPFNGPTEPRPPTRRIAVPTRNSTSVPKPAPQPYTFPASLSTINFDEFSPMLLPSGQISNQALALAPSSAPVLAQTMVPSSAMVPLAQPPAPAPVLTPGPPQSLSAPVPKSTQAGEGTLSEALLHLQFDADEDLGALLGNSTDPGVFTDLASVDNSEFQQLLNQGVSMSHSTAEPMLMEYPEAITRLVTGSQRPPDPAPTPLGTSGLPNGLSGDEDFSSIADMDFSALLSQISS

[2] = molecular target: T1, mEGFP-RelA (fluorescent fusion protein …); experiment: Number and Brightness (N&B) live-cell confocal fluorescence fluctuation microscopy; nuclei of live NIH3T3 fibroblasts transiently or stably expressing the mEGFP fusion, 37°C; brightness ε relative to the mEGFP-mutGR monomer control; stimuli 10 ng/mL TNFα, 100 ng/mL LPS, 100 nM Dex, dihydrotestosterone or progesterone; pre-treatments WFA (0.5 or 1 μM, 1 h) or TSA (2 h) before LPS; untagged endogenous protein present; conditions: remark: other sources report otherwise
[3] = molecular target: T2, mEGFP-GR (mEGFP-tagged wild-type glucocorticoid receptor), P06537; experiment: as above; conditions: remark: other sources report otherwise
T2 chain: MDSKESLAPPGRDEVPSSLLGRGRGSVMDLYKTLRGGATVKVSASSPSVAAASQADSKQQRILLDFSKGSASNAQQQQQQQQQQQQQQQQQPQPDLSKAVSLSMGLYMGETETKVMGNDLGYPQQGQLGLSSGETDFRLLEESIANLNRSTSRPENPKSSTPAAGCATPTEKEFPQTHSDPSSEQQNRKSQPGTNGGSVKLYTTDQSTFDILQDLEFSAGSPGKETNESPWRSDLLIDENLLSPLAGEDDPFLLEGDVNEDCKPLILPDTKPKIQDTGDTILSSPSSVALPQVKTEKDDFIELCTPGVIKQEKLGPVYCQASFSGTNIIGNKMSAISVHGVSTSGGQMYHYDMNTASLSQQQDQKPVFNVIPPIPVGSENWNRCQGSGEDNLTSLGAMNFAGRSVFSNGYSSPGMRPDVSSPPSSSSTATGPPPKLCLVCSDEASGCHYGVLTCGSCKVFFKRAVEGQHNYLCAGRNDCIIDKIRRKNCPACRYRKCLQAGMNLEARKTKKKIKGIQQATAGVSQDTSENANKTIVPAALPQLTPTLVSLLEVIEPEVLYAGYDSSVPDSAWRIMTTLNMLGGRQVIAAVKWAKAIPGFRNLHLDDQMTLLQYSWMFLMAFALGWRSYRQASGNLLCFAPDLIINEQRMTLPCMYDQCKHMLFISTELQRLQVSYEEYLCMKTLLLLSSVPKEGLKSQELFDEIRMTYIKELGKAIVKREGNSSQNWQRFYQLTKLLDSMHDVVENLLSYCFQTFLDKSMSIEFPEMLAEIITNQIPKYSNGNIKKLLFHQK

[4] = molecular target: T3, mEGFP-RelA from the knock-in (KI) mouse (mEGFP inserted at the endogenous RelA locus) (mouse), Q04207; experiment: Number and Brightness (N&B) live-cell confocal fluorescence fluctuation microscopy; nuclei of live primary MAFs from the mEGFP-RelA knock-in mouse, treated with TNFα or LPS; all RelA tagged; conditions: remark: other sources report otherwise
T3 chain: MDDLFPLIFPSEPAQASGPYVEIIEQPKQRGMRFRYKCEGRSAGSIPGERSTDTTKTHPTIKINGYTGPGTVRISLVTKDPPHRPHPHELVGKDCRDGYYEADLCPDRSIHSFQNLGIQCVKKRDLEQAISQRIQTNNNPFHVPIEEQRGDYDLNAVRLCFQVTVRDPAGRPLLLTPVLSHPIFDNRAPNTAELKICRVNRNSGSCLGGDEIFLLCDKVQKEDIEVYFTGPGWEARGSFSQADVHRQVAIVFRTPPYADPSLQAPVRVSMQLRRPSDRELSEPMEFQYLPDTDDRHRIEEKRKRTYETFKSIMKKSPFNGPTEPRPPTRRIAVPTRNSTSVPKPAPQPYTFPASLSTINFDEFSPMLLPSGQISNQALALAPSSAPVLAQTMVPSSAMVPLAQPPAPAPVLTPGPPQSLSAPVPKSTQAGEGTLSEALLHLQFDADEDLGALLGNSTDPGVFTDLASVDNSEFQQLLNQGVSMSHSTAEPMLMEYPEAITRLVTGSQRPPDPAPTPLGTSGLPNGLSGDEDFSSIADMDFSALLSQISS

[5] = molecular target: the molecule itself; experiment: Number and Brightness (N&B) live-cell confocal fluorescence fluctuation microscopy; nuclei of live NIH3T3 fibroblasts transiently or stably expressing the mEGFP fusion, 37°C; brightness ε relative to the mEGFP-mutGR monomer control; stimuli 10 ng/mL TNFα, 100 ng/mL LPS, 100 nM Dex, dihydrotestosterone or progesterone; pre-treatments WFA (0.5 or 1 μM, 1 h) or TSA (2 h) before LPS; untagged endogenous protein present

B1: mEGFP-RelA (fluorescent fusion protein expressed from the pSF-EF1α-Ub-Neo plasmid), Q04207 1-549 (natural protein)
chain: MDDLFPLIFPSEPAQASGPYVEIIEQPKQRGMRFRYKCEGRSAGSIPGERSTDTTKTHPTIKINGYTGPGTVRISLVTKDPPHRPHPHELVGKDCRDGYYEADLCPDRSIHSFQNLGIQCVKKRDLEQAISQRIQTNNNPFHVPIEEQRGDYDLNAVRLCFQVTVRDPAGRPLLLTPVLSHPIFDNRAPNTAELKICRVNRNSGSCLGGDEIFLLCDKVQKEDIEVYFTGPGWEARGSFSQADVHRQVAIVFRTPPYADPSLQAPVRVSMQLRRPSDRELSEPMEFQYLPDTDDRHRIEEKRKRTYETFKSIMKKSPFNGPTEPRPPTRRIAVPTRNSTSVPKPAPQPYTFPASLSTINFDEFSPMLLPSGQISNQALALAPSSAPVLAQTMVPSSAMVPLAQPPAPAPVLTPGPPQSLSAPVPKSTQAGEGTLSEALLHLQFDADEDLGALLGNSTDPGVFTDLASVDNSEFQQLLNQGVSMSHSTAEPMLMEYPEAITRLVTGSQRPPDPAPTPLGTSGLPNGLSGDEDFSSIADMDFSALLSQISS
B1 was tested, and the nuclear brightness (ε) relative to monomer control; WT primary MAFs, LPS [1] was 1.29, the nuclear brightness (ε) relative to monomer control; p50/c-Rel double-KO primary MAFs, LPS [1] was 1.31 and the percent of RelA-containing dimers in the nucleus that are homodimers (estimated from ε); WT primary MAFs, LPS [1] was 20%. For the same binder, the median nuclear brightness (ε) relative to monomer control; stably transfected 3T3, LPS [2] was 1.75, the median nuclear brightness (ε) relative to monomer control; stably transfected 3T3, TNFα [2] was 1.61 and the median nuclear brightness (ε) relative to monomer control; transiently transfected 3T3, TNFα [2] was 1.52. The nuclear brightness (ε); stably transfected 3T3, 0.5 μM WFA before LPS [2] was 1.57, the nuclear brightness (ε); stably transfected 3T3, 1 μM WFA before LPS [2] was 1.61 and the nuclear brightness (ε); stably transfected 3T3, TSA before LPS (concentration not given) [2] was 1.42 and 1.58. The percent dimers (estimated from ε); stably transfected 3T3, LPS [2] was 60%, the percent dimers (estimated from ε); stably transfected 3T3, TNFα [2] was 43% and the percent of RelA dimer species that are RelA homodimers (estimated from ε); transiently transfected 3T3, TNFα [2] was 35%.

B2: mEGFP-GR (mEGFP-tagged wild-type glucocorticoid receptor), P06537 1-792 (natural protein)
chain: MDSKESLAPPGRDEVPSSLLGRGRGSVMDLYKTLRGGATVKVSASSPSVAAASQADSKQQRILLDFSKGSASNAQQQQQQQQQQQQQQQQQPQPDLSKAVSLSMGLYMGETETKVMGNDLGYPQQGQLGLSSGETDFRLLEESIANLNRSTSRPENPKSSTPAAGCATPTEKEFPQTHSDPSSEQQNRKSQPGTNGGSVKLYTTDQSTFDILQDLEFSAGSPGKETNESPWRSDLLIDENLLSPLAGEDDPFLLEGDVNEDCKPLILPDTKPKIQDTGDTILSSPSSVALPQVKTEKDDFIELCTPGVIKQEKLGPVYCQASFSGTNIIGNKMSAISVHGVSTSGGQMYHYDMNTASLSQQQDQKPVFNVIPPIPVGSENWNRCQGSGEDNLTSLGAMNFAGRSVFSNGYSSPGMRPDVSSPPSSSSTATGPPPKLCLVCSDEASGCHYGVLTCGSCKVFFKRAVEGQHNYLCAGRNDCIIDKIRRKNCPACRYRKCLQAGMNLEARKTKKKIKGIQQATAGVSQDTSENANKTIVPAALPQLTPTLVSLLEVIEPEVLYAGYDSSVPDSAWRIMTTLNMLGGRQVIAAVKWAKAIPGFRNLHLDDQMTLLQYSWMFLMAFALGWRSYRQASGNLLCFAPDLIINEQRMTLPCMYDQCKHMLFISTELQRLQVSYEEYLCMKTLLLLSSVPKEGLKSQELFDEIRMTYIKELGKAIVKREGNSSQNWQRFYQLTKLLDSMHDVVENLLSYCFQTFLDKSMSIEFPEMLAEIITNQIPKYSNGNIKKLLFHQK
B2 was tested, and the nuclear brightness (ε) relative to monomer control; transiently transfected 3T3, Dex [3] was 1.52.

B3: mEGFP-RelA from the knock-in (KI) mouse (mEGFP inserted at the endogenous RelA locus), Q04207 1-549 (natural protein)
chain: MDDLFPLIFPSEPAQASGPYVEIIEQPKQRGMRFRYKCEGRSAGSIPGERSTDTTKTHPTIKINGYTGPGTVRISLVTKDPPHRPHPHELVGKDCRDGYYEADLCPDRSIHSFQNLGIQCVKKRDLEQAISQRIQTNNNPFHVPIEEQRGDYDLNAVRLCFQVTVRDPAGRPLLLTPVLSHPIFDNRAPNTAELKICRVNRNSGSCLGGDEIFLLCDKVQKEDIEVYFTGPGWEARGSFSQADVHRQVAIVFRTPPYADPSLQAPVRVSMQLRRPSDRELSEPMEFQYLPDTDDRHRIEEKRKRTYETFKSIMKKSPFNGPTEPRPPTRRIAVPTRNSTSVPKPAPQPYTFPASLSTINFDEFSPMLLPSGQISNQALALAPSSAPVLAQTMVPSSAMVPLAQPPAPAPVLTPGPPQSLSAPVPKSTQAGEGTLSEALLHLQFDADEDLGALLGNSTDPGVFTDLASVDNSEFQQLLNQGVSMSHSTAEPMLMEYPEAITRLVTGSQRPPDPAPTPLGTSGLPNGLSGDEDFSSIADMDFSALLSQISS
B3 was tested, and the percent of RelA dimer species that are RelA homodimers; knock-in MAFs, TNFα or LPS [4] was < 35%.

B4: mEGFP-PR (mEGFP-tagged progesterone receptor) (natural protein, UniProt P06401 1-933, looked up)
chain: MTELKAKGPRAPHVAGGPPSPEVGSPLLCRPAAGPFPGSQTSDTLPEVSAIPISLDGLLFPRPCQGQDPSDEKTQDQQSLSDVEGAYSRAEATRGAGGSSSSPPEKDSGLLDSVLDTLLAPSGPGQSQPSPPACEVTSSWCLFGPELPEDPPAAPATQRVLSPLMSRSGCKVGDSSGTAAAHKVLPRGLSPARQLLLPASESPHWSGAPVKPSPQAAAVEVEEEDGSESEESAGPLLKGKPRALGGAAAGGGAAAVPPGAAAGGVALVPKEDSRFSAPRVALVEQDAPMAPGRSPLATTVMDFIHVPILPLNHALLAARTRQLLEDESYDGGAGAASAFAPPRSSPCASSTPVAVGDFPDCAYPPDAEPKDDAYPLYSDFQPPALKIKEEEEGAEASARSPRSYLVAGANPAAFPDFPLGPPPPLPPRATPSRPGEAAVTAAPASASVSSASSSGSTLECILYKAEGAPPQQGPFAPPPCKAPGASGCLLPRDGLPSTSASAAAAGAAPALYPALGLNGLPQLGYQAAVLKEGLPQVYPPYLNYLRPDSEASQSPQYSFESLPQKICLICGDEASGCHYGVLTCGSCKVFFKRAMEGQHNYLCAGRNDCIVDKIRRKNCPACRLRKCCQAGMVLGGRKFKKFNKVRVVRALDAVALPQPVGVPNESQALSQRFTFSPGQDIQLIPPLINLLMSIEPDVIYAGHDNTKPDTSSSLLTSLNQLGERQLLSVVKWSKSLPGFRNLHIDDQITLIQYSWMSLMVFGLGWRSYKHVSGQMLYFAPDLILNEQRMKESSFYSLCLTMWQIPQEFVKLQVSQEEFLCMKVLLLLNTIPLEGLRSQTQFEEMRSSYIRELIKAIGLRQKGVVSSSQRFYQLTKLLDNLHDLVKQLHLYCLNTFIQSRALSVEFPEMMSEVIAAQLPKILAGMVKPLLFHKK
notes: progesterone receptor; Assayed in cells treated with progesterone; source: fibroblasts (immortalized), transiently transfected, in live cells
With B4 the “nuclear brightness (ε) relative to monomer control; transiently transfected fibroblasts, progesterone” value [5] was 2.07.
